Laboratory results from patent US20100068199A1 (RINAT NEUROSCIENCE, published 2010).
Where two headings read alike, the source gives them in different places.

Experiments:
recombinant human PCSK9 [1] = target: T1, recombinant human PCSK9 (human, UniProt Q8NBP7 31-692); assay: competition ELISA; antibody blocks biotinylated PCSK9 binding to immobilized recombinant LDLR extracellular domain
T1 construct: also called hPCSK9

recombinant mouse PCSK9 [2] = target: T2, recombinant mouse PCSK9 (mouse, UniProt Q80W65 35-694); assay: as above
T2 construct: also called mPCSK9; murine PCSK9
T2 sequence (Q80W65 other isoform, or with tags, fused parts or gaps limits assumed): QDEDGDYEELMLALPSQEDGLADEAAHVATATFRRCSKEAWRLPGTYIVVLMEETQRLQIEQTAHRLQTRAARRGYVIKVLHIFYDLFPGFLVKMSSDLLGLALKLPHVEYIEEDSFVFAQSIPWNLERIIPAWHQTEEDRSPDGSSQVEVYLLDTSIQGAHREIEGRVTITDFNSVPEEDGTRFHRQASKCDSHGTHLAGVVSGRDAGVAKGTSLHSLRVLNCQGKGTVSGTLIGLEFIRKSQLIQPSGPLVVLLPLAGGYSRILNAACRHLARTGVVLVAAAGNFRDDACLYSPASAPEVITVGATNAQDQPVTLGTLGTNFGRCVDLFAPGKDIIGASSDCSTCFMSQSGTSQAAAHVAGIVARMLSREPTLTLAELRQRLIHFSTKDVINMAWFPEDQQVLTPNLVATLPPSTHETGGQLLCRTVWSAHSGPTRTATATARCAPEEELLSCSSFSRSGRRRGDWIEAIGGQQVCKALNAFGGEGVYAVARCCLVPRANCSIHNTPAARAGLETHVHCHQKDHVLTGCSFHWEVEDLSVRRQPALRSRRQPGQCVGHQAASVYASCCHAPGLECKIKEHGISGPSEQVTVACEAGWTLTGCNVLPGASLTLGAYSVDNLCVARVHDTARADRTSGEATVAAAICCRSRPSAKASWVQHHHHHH

recombinant mouse PCSK9 [3] = target: T2, recombinant mouse PCSK9; assay: ELISA, blocking: biotinylated mouse PCSK9 (0.8nM) binding to immobilized human LDLR extracellular domain, pH7.5
Description: (§1) ELISA plates (Corning Mixisorb) were coated with a solution of 1 μg/ml recombinant LDLR extracellular domain (R&D Systems) in each well at 4 C overnight, blocked with 2% BSA+PBS for 2 hrs at room temperature, and then washed 5 times with washing buffer (1×PBS+0.05% Tween-20). Wells were incubated with 50 μl of indicated concentrations of biotinylated PCSK9 protein for 1 hr RT. LDLR-PCSK9 binding can be stabilized by adding 50 μl of 4% FDH+4% sucrose+PBS solution and incubate for 5 min. Wells were washed 5 times with washing buffer, incubated with 1:2000 dilution of HRP conjugated Strepavidin (Invitrogen) for 1 hr at RT, washed 5 times with washing buffer. TMB substrate was added to the wells, the solution was incubated 20 to 30 min at RT, and the reaction was terminated using 1 M phosphoric acid. Signals were read at 450 nm.

recombinant human PCSK9 [4] = target: T1, recombinant human PCSK9; assay: TR-FRET in solution at neutral pH: biotinylated human PCSK9 (30 nM) binding to Europium labeled LDLR extracellular domain (10 nM) blocked by the mAb
rat PCSK9 in plasma = rat PCSK9 in plasma (rat, UniProt P59996 31-691); assay: antibody incubated with plasma, complexes purified and probed by Western blot
rat PCSK9 in plasma, sequence (P59996 31-691 limits assumed): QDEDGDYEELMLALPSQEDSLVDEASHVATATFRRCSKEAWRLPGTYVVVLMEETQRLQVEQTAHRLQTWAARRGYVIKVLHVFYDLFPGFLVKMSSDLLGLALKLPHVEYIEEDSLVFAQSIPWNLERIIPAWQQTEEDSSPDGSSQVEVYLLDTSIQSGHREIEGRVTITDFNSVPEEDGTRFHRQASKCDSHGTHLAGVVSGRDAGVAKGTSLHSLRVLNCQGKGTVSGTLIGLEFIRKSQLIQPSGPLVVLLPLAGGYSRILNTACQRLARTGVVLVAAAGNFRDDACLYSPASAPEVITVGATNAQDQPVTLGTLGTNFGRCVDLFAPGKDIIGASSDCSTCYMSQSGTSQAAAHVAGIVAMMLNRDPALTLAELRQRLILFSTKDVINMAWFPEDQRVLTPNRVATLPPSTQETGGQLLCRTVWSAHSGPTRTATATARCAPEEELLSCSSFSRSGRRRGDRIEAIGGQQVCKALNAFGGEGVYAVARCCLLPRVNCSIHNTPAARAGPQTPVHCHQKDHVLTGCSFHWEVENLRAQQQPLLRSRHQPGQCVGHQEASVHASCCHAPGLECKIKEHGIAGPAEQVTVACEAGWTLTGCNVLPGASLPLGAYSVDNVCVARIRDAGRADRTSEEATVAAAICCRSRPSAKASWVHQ
Description: To determine the species specificity of the anti-PCSK9 antibodies, antibodies were incubated with plasma from different species and the resultant complexes were purified and probed by an independent anti PCSK9 antibody on Western blots. […] Id.

recombinant human PCSK9 [5] = target: T1, recombinant human PCSK9; assay: SPR (Biacore 3000); full-length IgG captured on anti-mouse IgG, PCSK9 injected
Description: (§2) The affinities of PCSK9 antibodies to PCSK9 were measured on a surface plasmon resonance Biacore 3000 biosensor equipped with a research-grade sensor chip using HBS-EP running buffer (Biacore AB, Uppsala, Sweden—now GE Healthcare). Rabbit polyclonal anti-Ms IgGs were amine-coupled at saturating levels onto the chip using a standard N-hydroxysuccinimide/ethyldimethylaminopropyl carbodiimide (NHS/EDC) chemistry. The buffer was switched to HBS-EP+1 mg/mL BSA+1 mg/mL CM-dextran.
(§3) Dissociation was monitored for 5 min. The chip was regenerated after the last injection of each titration with two 30 sec pulses of 100 mM phosphoric acid. Buffer cycles provided blanks for double-referencing the data, which were then fit globally to a simple binding model using Biaevaluation software v.4.1. Affinities were deduced from the quotient of the kinetic rate constants (KD=koff/kₒₙ).

recombinant mouse PCSK9 [6] = target: T2, recombinant mouse PCSK9; assay: as above
Description: as §2, §3

recombinant human PCSK9 [7] = target: T1, recombinant human PCSK9; assay: ELISA, blocking: biotinylated human PCSK9 (0.4nM) binding to immobilized human LDLR extracellular domain, pH7.5
Description: as §1

PCSK9 [8] = target: T3, PCSK9
T3 construct: neither names the species
T3 sequence (prodomain, as listed by the source limits assumed, chain 1 of 2): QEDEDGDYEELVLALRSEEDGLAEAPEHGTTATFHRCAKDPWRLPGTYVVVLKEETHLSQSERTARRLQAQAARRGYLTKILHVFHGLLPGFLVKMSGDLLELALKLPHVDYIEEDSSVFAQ
T3 sequence (chain, as listed by the source limits assumed, chain 2 of 2): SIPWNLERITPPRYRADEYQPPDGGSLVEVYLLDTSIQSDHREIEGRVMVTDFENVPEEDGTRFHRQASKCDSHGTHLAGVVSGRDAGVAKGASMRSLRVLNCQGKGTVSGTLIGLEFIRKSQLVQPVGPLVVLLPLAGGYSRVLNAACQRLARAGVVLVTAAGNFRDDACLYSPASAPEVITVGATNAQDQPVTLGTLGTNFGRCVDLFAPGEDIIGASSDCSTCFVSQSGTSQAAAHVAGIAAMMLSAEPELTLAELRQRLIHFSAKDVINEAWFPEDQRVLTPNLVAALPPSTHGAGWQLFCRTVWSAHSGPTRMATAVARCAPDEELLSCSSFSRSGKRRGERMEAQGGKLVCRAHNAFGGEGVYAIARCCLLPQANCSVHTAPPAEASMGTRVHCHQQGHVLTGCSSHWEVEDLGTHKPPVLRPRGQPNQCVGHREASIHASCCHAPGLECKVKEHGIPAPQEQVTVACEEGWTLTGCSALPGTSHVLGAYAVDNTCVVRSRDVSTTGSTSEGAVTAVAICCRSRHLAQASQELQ

PCSK9 [9] = target: T3, PCSK9; remark: listed apart in the source
recombinant human PCSK9 [10] = target: T1, recombinant human PCSK9; assay: Biacore; format not described
recombinant mouse PCSK9 [11] = target: T2, recombinant mouse PCSK9; assay: Biacore; format not described

T1 sequence (Q8NBP7 31-692 limits assumed): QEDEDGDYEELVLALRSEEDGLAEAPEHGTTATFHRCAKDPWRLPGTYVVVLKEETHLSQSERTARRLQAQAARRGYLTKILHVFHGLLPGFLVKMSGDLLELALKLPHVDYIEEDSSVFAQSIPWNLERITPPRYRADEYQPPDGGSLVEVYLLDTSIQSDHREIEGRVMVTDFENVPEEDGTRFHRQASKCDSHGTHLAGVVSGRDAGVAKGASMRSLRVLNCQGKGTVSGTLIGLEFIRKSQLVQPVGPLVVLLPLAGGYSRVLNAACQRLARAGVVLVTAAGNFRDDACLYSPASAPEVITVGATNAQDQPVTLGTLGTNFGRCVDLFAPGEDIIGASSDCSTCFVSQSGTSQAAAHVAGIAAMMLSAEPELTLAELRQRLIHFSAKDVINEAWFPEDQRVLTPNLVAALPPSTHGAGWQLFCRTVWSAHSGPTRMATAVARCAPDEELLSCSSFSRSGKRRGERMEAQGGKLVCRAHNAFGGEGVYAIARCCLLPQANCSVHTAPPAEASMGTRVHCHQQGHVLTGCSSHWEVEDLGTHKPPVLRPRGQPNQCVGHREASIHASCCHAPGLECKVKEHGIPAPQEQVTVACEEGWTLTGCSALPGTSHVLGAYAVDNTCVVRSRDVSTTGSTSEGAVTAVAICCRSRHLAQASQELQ

| IC50 (recombinant human PCSK9 [1]) [nM] | IC50 (recombinant mouse PCSK9 [2]) [nM] | IC50 (read off the curve) (recombinant mouse PCSK9 [3]) [nM] | IC50 (recombinant human PCSK9 [4]) [nM] | binding result (rat PCSK9 in plasma) | Kd (recombinant human PCSK9 [5]) [nM] | koff (recombinant human PCSK9 [5]) [s⁻¹] | kon (recombinant human PCSK9 [5]) [M⁻¹ s⁻¹] | Kd (recombinant mouse PCSK9 [6]) [nM] | koff (recombinant mouse PCSK9 [6]) [s⁻¹] | kon (recombinant mouse PCSK9 [6]) [M⁻¹ s⁻¹] | IC50 (read off the curve) (recombinant human PCSK9 [7]) [nM] | Kd (PCSK9 [8]) [nM] | Kd (PCSK9 [9]) [nM] | Kd (recombinant human PCSK9 [10]) [nM] | Kd (recombinant mouse PCSK9 [11]) [nM] | Binder |
| --- | --- | --- | --- | --- | --- | --- | --- | --- | --- | --- | --- | --- | --- | --- | --- | --- |
| 1.5 | 10 | ~10 | 6.5 | binds | 6.4 | 0.000584 | 91500 | 17.7 | 0.00197 | 111000 | ~2 | – | – | – | – | anti-PCSK9 antagonist monoclonal antibody 6F6 (antibody, V domains shown, Murine full-length IgG from a hybridoma; also called 6F6.G10.3 (subclone); ATCC PTA-8984) VH: EVQLQQSGPELVKPGASVKISCKASGYTFTDYYMNWVKQSHGKSLEWIGDINPNNGGTSYNQKFKGKATLTVDKSSSTAYMELRSLTSEDSAVYYCAGGGIYYRYDRNYFDYWGQGTTLTVSS VL: DIQMTQTTSSLSASLGDRVTISCSASQGISNYLNWYQQKPDGTVKLLIYYTSSLHSGVPSRFSGSGSGTDYSLTISNLEPEDIATYYCQQYSKLPFTFGSGTKLEIK |
| 1.5 | 1 | ~0.9 | 5.4 | binds | 6.4 | 0.000794 | 125000 | 1.3 | – | – | ~1 | – | – | – | – | anti-PCSK9 antagonist monoclonal antibody 7D4 (antibody, V domains shown, Murine full-length IgG from a hybridoma; also called 7D4.4 (subclone); ATCC PTA-8983) VH: EVKLVESEGGLVQPGSSMKLSCTASGFTFSDYYMAWVRQVPEKGLEWVANINYDGSNTSYLDSLKSRFIISRDNAKNILYLQMSSLKSEDTATYYCAREKFAAMDYWGQGTSVTVSS VL: DIVMTQSHKFMSTSFGDRVSITCKASQDVSNALAWYQQKPGHSPKLLIFSASYRYTGVPDRFTGSGSGTDFTFTISSVQAEDLAVYYCQQHYSTPWTFGGGTKLEIKR |
| 0.4 | 3 | ~3 | 6 | binds | 1 | 8.55e-05 | 84700 | 3.9 | 0.000489 | 127000 | ~0.3 | 1.1 | – | – | – | anti-PCSK9 antagonist monoclonal antibody 5A10 (antibody, V domains shown, Murine full-length IgG from a hybridoma; Mouse precursor of L1L3; also called 5A10.B8 (subclone)) VH: QVQLQQPGAELVKPGASVKLSCKASGYTFTSYWMHWVKQRPGQGLEWIGEINPSNGRTNYNEKFKSKATLTVDKSSSTAYMQLSSLTSEDSAVYYCARERPLYAMDYWGQGTSVTVSS VL: DIVMTQSHKFMSTSVGDRVSITCKASQDVSTAVAWYQQKPGQSPKLLIYSASYRYTGVPDRFTGSGSGTDFTFTISSVQAEDLAVYYCQQRYSTPRTFGGGTKLEIKR |
| – | – | – | – | – | – | – | – | – | – | – | – | – | 0.007 | 0.1 | 0.2 | L1L3 humanized anti-PCSK9 monoclonal antibody (antibody, V domains shown) VH: QVQLVQSGAEVKKPGASVKVSCKASGYTFTSYYMHWVRQAPGQGLEWMGEISPFGGRTNYNEKFKSRVTMTRDTSTSTVYMELSSLRSEDTAVYYCARERPLYASDLWGQGTTVTVSS VL: DIQMTQSPSSLSASVGDRVTITCRASQGISSALAWYQQKPGKAPKLLIYSASYRYTGVPSRFSGSGSGTDFTFTISSLQPEDIATYYCQQRYSLWRTFGQGTKLEIKR |
| 0.4 | 3 | ~3 | 7.1 | binds | 2.8 | 0.000189 | 66600 | 5.1 | 0.00072 | 141000 | ~0.2 | – | – | – | – | anti-PCSK9 antagonist monoclonal antibody 4A5 (antibody, V domains shown, Murine full-length IgG from a hybridoma; also called 4A5.G3 (subclone); ATCC PTA-8985) VH: EVQLQQSGPELVKPGASVKISCKASGYTFTDYYMNWVKQSHGKSLEWIGDINPNNGGTTYNQKFKGKATLTVDKSYSTAYMELRSLTSEDSAVYYCARWLLFAYWGQGTLVTVSA VL: DIVMTQSQKFMSTSVGDRVSVTCKASQNVGTNVAWYQQKPGQSPKALIYSASYRYSGVPDRFTGSGSGTDFTLTISNVLSEDLAEYFCQQFYSYPYTFGGGTKLEIKR |
